Measurements reported in EP3639857B1, “ERYTHROPOIETIN COMPOSITION WITH IMPROVED STABILITY AND METHOD FOR PREPARING SAME” (Hankook Korus Pharmaceutical Co. Ltd., priority 2017, dated 2018).

Legend:
B6D2F1 mice = assay: Pharmacodynamics in mice after intraperitoneal administration, CBC test; format: in vivo; details: for RBC Increase (%) / Reticulocyte (×10^9/L) Increase (%): 7d vs 0d
Method: Pharmacodynamics were measured by a method of intraperitoneally administrating the PEG-EPO conjugates to B6D2F1 mice (female, 7 weeks old, body weight of 20.02±0.88 g). Specifically, 1.25, 2.5, 5, or 20 µg/kg of EPO, PEG-EPO-TS, or PEG-EPO-Mircera drugs were administered, after 7 days, 200 to 300 µl of the blood was collected from the facial vein by using a lancet into a micro EDTA tube (MiniCollect, Greiner Bio One International GmbH), the shaker was used to sufficiently mix the EDTA to prevent coagulation, and then, the CBC test was performed by using the ADVIA 2120i (Siemens AG) equipment within one hour. The results are shown in Table 10 below with the comparison of CBC results before drug administration.

[1] = Pharmacokinetics in rat after intravenous administration, erythropoietin in blood by ELISA, non-compartmental analysis; format: in vivo; details: SD rats
Method: Pharmacokinetics were measured by a method of intravenously administrating PEG-EPO conjugates to SD rats (male, 7 weeks old, body weight of 243.53±14.33 g). Specifically, after the administration of 3 µg/kg of EPO, PEG-EPO-TS, or PEG-EPO-Mircera, after 0, 0.5, 1, 2, 4, 8, 24 (1 d), 48 (2 d), 96 (4 d), and 168 ([…]) hours, blood was collected from the rats with an SST tube, centrifuged at 6,000 rpm for 10 minutes at 4°C, and stored at -80°C until the concentration measurement. The concentration of erythropoietin in the blood was measured by ELISA.
The pharmacokinetic analysis of the measured concentration results was performed by non-compartmental analysis (NCA), and the analysis was performed with the program of Phoenix WinNonlin 7.0 (Certara USA Inc., Princeton, NJ, USA). Individual NCA parameters were calculated.

[2] = i.p. 20 µg/kg, 0d (before drug administration)

Substance: PEG-EPO-Mircera: commercially available pegylated EPO (Mircera, Roche Korea Co., Ltd.), comparative group [reference compound]
- Reticulocyte (×10^9/L) 0d (B6D2F1 mice; i.p. 1.25 µg/kg, 0d (before drug administration)): 228. 40 ×10^9/L
- Reticulocyte (%) 7d (B6D2F1 mice; i.p. 1.25 µg/kg): 4.78%
- RBC Increase (%) (B6D2F1 mice; i.p. 1.25 µg/kg): 15.03%
- Reticulocyte (×10^9/L) Increase (%) (B6D2F1 mice; i.p. 1.25 µg/kg): 98.51%
- Reticulocyte (×10^9/L) 0d (B6D2F1 mice; i.p. 2.5 µg/kg, 0d (before drug administration)): 143. 50 ×10^9/L
- RBC(×10^6/µl) 7d (B6D2F1 mice; i.p. 2.5 µg/kg): 12. 16 ×10^6/µl
- Reticulocyte (%) 7d (B6D2F1 mice; i.p. 2.5 µg/kg): 4.05%
- RBC Increase (%) (B6D2F1 mice; i.p. 2.5 µg/kg): 37.25%
- Reticulocyte (×10^9/L) Increase (%) (B6D2F1 mice; i.p. 2.5 µg/kg): 242.79%
- Reticulocyte (×10^9/L) 0d (B6D2F1 mice; i.p. 5 µg/kg, 0d (before drug administration)): 134. 10 ×10^9/L
- RBC(×10^6/µl) 7d (B6D2F1 mice; i.p. 5 µg/kg): 12. 01 ×10^6/µl
- Reticulocyte (×10^9/L) 7d (B6D2F1 mice; i.p. 5 µg/kg): 1548. 00 ×10^9/L
- RBC Increase (%) (B6D2F1 mice; i.p. 5 µg/kg): 31.26%
- RBC(×10^6/µl) 0d (B6D2F1 mice; [2]): 10. 43 ×10^6/µl
- Reticulocyte (×10^9/L) 0d (B6D2F1 mice; [2]): 194. 70 ×10^9/L
- RBC(×10^6/µl) 7d (B6D2F1 mice; i.p. 20 µg/kg): 13. 55 ×10^6/µl
- Reticulocyte (×10^9/L) 7d (B6D2F1 mice; i.p. 20 µg/kg): 2347. 00 ×10^9/L
- RBC Increase (%) (B6D2F1 mice; i.p. 20 µg/kg): 29.91%
- concentration of erythropoietin in the blood 0 h ([1]; IV 3 µg/kg, 0 h): 0
- concentration of erythropoietin in the blood 0.5 h ([1]; IV 3 µg/kg, 0.5 h): 8.7
- concentration of erythropoietin in the blood 1h ([1]; IV 3 µg/kg, 1 h): 7.6
- concentration of erythropoietin in the blood 2h ([1]; IV 3 µg/kg, 2 h): 6.3
- concentration of erythropoietin in the blood 4h ([1]; IV 3 µg/kg, 4 h): 6.8
- concentration of erythropoietin in the blood 8h ([1]; IV 3 µg/kg, 8 h): 4.9
- concentration of erythropoietin in the blood 24h ([1]; IV 3 µg/kg, 24 h): 3.6
- concentration of erythropoietin in the blood 48h ([1]; IV 3 µg/kg, 48 h): 2.1
- concentration of erythropoietin in the blood 96h ([1]; IV 3 µg/kg, 96 h): 0.7
- concentration of erythropoietin in the blood 168h ([1]; IV 3 µg/kg, 168 h): 0.1
- AUCinf ([1]; IV 3 µg/kg, NCA, administration to infinity): 288.60 ng·h/mL
- AUClast ([1]; IV 3 µg/kg, NCA, administration to last measured concentration): 284.59 ng·h/mL
- C1 ([1]; IV 3 µg/kg, NCA, clearance): 112.24 mL/h/kg
- T1/2 ([1]; IV 3 µg/kg, NCA, half-life): 27.83 h
- C0 ([1]; IV 3 µg/kg, NCA, initial concentration): 9.96 ng/mL
- Cmax ([1]; IV 3 µg/kg, NCA, maximal concentration): 8.7 ng/mL
- MRTlast ([1]; IV 3 µg/kg, NCA, mean residence time to last measured concentration): 36.87 h
- AUC%Extrap (%) ([1]; IV 3 µg/kg, NCA, percentage of extrapolated area): 1.39%
- Tmax ([1]; IV 3 µg/kg, NCA, time at maximal concentration): 30 min
- VZ ([1]; IV 3 µg/kg, NCA, volume of distribution): 4506.67 mL/kg
- Vss ([1]; IV 3 µg/kg, NCA, volume of distribution at steady state): 4406.32 mL/kg
- half-life ([1]; IV administration): 27.8 h
